Where no end group is shown, it is not given here. [ ]: non-standard residue; d: D form. Aib = CC(C)(N)C(=O)O
Key:
[1] = target: human glucagon receptor (GCGR) (human, UniProt P47871 26-477); experiment: cell-based or functional assay
[2] = target: human GLP-1 receptor (GLP-1R) (human, UniProt P43220 24-463); experiment: cell-based or functional assay
Sequence of human GLP-1 receptor (GLP-1R) (P43220 24-463): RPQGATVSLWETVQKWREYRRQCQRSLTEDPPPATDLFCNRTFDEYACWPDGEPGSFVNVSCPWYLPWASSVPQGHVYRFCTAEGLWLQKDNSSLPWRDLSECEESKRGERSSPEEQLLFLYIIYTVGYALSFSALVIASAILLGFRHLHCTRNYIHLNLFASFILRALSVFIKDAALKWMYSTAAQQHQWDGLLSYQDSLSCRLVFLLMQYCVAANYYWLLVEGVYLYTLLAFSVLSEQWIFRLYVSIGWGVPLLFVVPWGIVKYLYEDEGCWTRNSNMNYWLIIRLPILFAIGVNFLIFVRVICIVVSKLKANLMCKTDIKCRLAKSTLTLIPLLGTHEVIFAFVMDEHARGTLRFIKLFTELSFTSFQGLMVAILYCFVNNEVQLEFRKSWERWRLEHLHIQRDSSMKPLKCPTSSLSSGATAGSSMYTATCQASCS

Binder	hGCGR pEC50 (cAMP) [1] [pEC50]	hGLP1 pEC50 (cAMP) [2] [pEC50]
YSHGTFTSDYSKYLD[Aib]KRAQEFV[Aib]WLEDEGGPSSGAPPPS-OH (N-terminus assumed; SMILES CC(C)C[C@H](NC(=O)[C@H](Cc1ccc(O)cc1)NC(=O)[C@H](CCCCN)NC(=O)[C@H](CO)NC(=O)[C@H](Cc1ccc(O)cc1)NC(=O)[C@H](CC(=O)O)NC(=O)[C@H](CO)NC(=O)[C@@H](NC(=O)[C@H](Cc1ccccc1)NC(=O)[C@@H](NC(=O)CNC(=O)[C@H](Cc1c[nH]cn1)NC(=O)[C@H](CO)NC(=O)[C@@H](N)Cc1ccc(O)cc1)[C@@H](C)O)[C@@H](C)O)C(=O)N[C@@H](CC(=O)O)C(=O)NC(C)(C)C(=O)N[C@@H](CCCCN)C(=O)N[C@@H](CCCNC(=N)N)C(=O)N[C@@H](C)C(=O)N[C@@H](CCC(N)=O)C(=O)N[C@@H](CCC(=O)O)C(=O)N[C@@H](Cc1ccccc1)C(=O)N[C@H](C(=O)NC(C)(C)C(=O)N[C@@H](Cc1c[nH]c2ccccc12)C(=O)N[C@@H](CC(C)C)C(=O)N[C@@H](CCC(=O)O)C(=O)N[C@@H](CC(=O)O)C(=O)N[C@@H](CCC(=O)O)C(=O)NCC(=O)NCC(=O)N1CCC[C@H]1C(=O)N[C@@H](CO)C(=O)N[C@@H](CO)C(=O)NCC(=O)N[C@@H](C)C(=O)N1CCC[C@H]1C(=O)N1CCC[C@H]1C(=O)N1CCC[C@H]1C(=O)N[C@@H](CO)C(=O)O)C(C)C) [Compound A27]	12.1	< 9
YSHGTFTSDYSKYLD[Aib]KRAQEFV[Aib]WLEDEPSSGEPPPS-OH (N-terminus assumed; SMILES CC(C)C[C@H](NC(=O)[C@H](Cc1ccc(O)cc1)NC(=O)[C@H](CCCCN)NC(=O)[C@H](CO)NC(=O)[C@H](Cc1ccc(O)cc1)NC(=O)[C@H](CC(=O)O)NC(=O)[C@H](CO)NC(=O)[C@@H](NC(=O)[C@H](Cc1ccccc1)NC(=O)[C@@H](NC(=O)CNC(=O)[C@H](Cc1c[nH]cn1)NC(=O)[C@H](CO)NC(=O)[C@@H](N)Cc1ccc(O)cc1)[C@@H](C)O)[C@@H](C)O)C(=O)N[C@@H](CC(=O)O)C(=O)NC(C)(C)C(=O)N[C@@H](CCCCN)C(=O)N[C@@H](CCCNC(=N)N)C(=O)N[C@@H](C)C(=O)N[C@@H](CCC(N)=O)C(=O)N[C@@H](CCC(=O)O)C(=O)N[C@@H](Cc1ccccc1)C(=O)N[C@H](C(=O)NC(C)(C)C(=O)N[C@@H](Cc1c[nH]c2ccccc12)C(=O)N[C@@H](CC(C)C)C(=O)N[C@@H](CCC(=O)O)C(=O)N[C@@H](CC(=O)O)C(=O)N[C@@H](CCC(=O)O)C(=O)N1CCC[C@H]1C(=O)N[C@@H](CO)C(=O)N[C@@H](CO)C(=O)NCC(=O)N[C@@H](CCC(=O)O)C(=O)N1CCC[C@H]1C(=O)N1CCC[C@H]1C(=O)N1CCC[C@H]1C(=O)N[C@@H](CO)C(=O)O)C(C)C) [Compound A21]	11.1	< 9
YSHGTFTSDYSKYLD[Aib]KRAQEFV[Aib]WLEDEPSSGAPPPSE-OH (N-terminus assumed; SMILES CC(C)C[C@H](NC(=O)[C@H](Cc1ccc(O)cc1)NC(=O)[C@H](CCCCN)NC(=O)[C@H](CO)NC(=O)[C@H](Cc1ccc(O)cc1)NC(=O)[C@H](CC(=O)O)NC(=O)[C@H](CO)NC(=O)[C@@H](NC(=O)[C@H](Cc1ccccc1)NC(=O)[C@@H](NC(=O)CNC(=O)[C@H](Cc1c[nH]cn1)NC(=O)[C@H](CO)NC(=O)[C@@H](N)Cc1ccc(O)cc1)[C@@H](C)O)[C@@H](C)O)C(=O)N[C@@H](CC(=O)O)C(=O)NC(C)(C)C(=O)N[C@@H](CCCCN)C(=O)N[C@@H](CCCNC(=N)N)C(=O)N[C@@H](C)C(=O)N[C@@H](CCC(N)=O)C(=O)N[C@@H](CCC(=O)O)C(=O)N[C@@H](Cc1ccccc1)C(=O)N[C@H](C(=O)NC(C)(C)C(=O)N[C@@H](Cc1c[nH]c2ccccc12)C(=O)N[C@@H](CC(C)C)C(=O)N[C@@H](CCC(=O)O)C(=O)N[C@@H](CC(=O)O)C(=O)N[C@@H](CCC(=O)O)C(=O)N1CCC[C@H]1C(=O)N[C@@H](CO)C(=O)N[C@@H](CO)C(=O)NCC(=O)N[C@@H](C)C(=O)N1CCC[C@H]1C(=O)N1CCC[C@H]1C(=O)N1CCC[C@H]1C(=O)N[C@@H](CO)C(=O)N[C@@H](CCC(=O)O)C(=O)O)C(C)C) [Compound A26]	11.1	< 9
YSHGTFTSDYSKYLD[Aib]KRAQEFV[Aib]WLEDEPSSKAPPPS-OH (N-terminus assumed; SMILES CC(C)C[C@H](NC(=O)[C@H](Cc1ccc(O)cc1)NC(=O)[C@H](CCCCN)NC(=O)[C@H](CO)NC(=O)[C@H](Cc1ccc(O)cc1)NC(=O)[C@H](CC(=O)O)NC(=O)[C@H](CO)NC(=O)[C@@H](NC(=O)[C@H](Cc1ccccc1)NC(=O)[C@@H](NC(=O)CNC(=O)[C@H](Cc1c[nH]cn1)NC(=O)[C@H](CO)NC(=O)[C@@H](N)Cc1ccc(O)cc1)[C@@H](C)O)[C@@H](C)O)C(=O)N[C@@H](CC(=O)O)C(=O)NC(C)(C)C(=O)N[C@@H](CCCCN)C(=O)N[C@@H](CCCNC(=N)N)C(=O)N[C@@H](C)C(=O)N[C@@H](CCC(N)=O)C(=O)N[C@@H](CCC(=O)O)C(=O)N[C@@H](Cc1ccccc1)C(=O)N[C@H](C(=O)NC(C)(C)C(=O)N[C@@H](Cc1c[nH]c2ccccc12)C(=O)N[C@@H](CC(C)C)C(=O)N[C@@H](CCC(=O)O)C(=O)N[C@@H](CC(=O)O)C(=O)N[C@@H](CCC(=O)O)C(=O)N1CCC[C@H]1C(=O)N[C@@H](CO)C(=O)N[C@@H](CO)C(=O)N[C@@H](CCCCN)C(=O)N[C@@H](C)C(=O)N1CCC[C@H]1C(=O)N1CCC[C@H]1C(=O)N1CCC[C@H]1C(=O)N[C@@H](CO)C(=O)O)C(C)C) [Compound A23]	11.2	< 9
YSHGTFTSDYSKYLD[Aib]KRAQEFV[Aib]WLEDEPSSKGAPPPS-OH (N-terminus assumed; SMILES CC(C)C[C@H](NC(=O)[C@H](Cc1ccc(O)cc1)NC(=O)[C@H](CCCCN)NC(=O)[C@H](CO)NC(=O)[C@H](Cc1ccc(O)cc1)NC(=O)[C@H](CC(=O)O)NC(=O)[C@H](CO)NC(=O)[C@@H](NC(=O)[C@H](Cc1ccccc1)NC(=O)[C@@H](NC(=O)CNC(=O)[C@H](Cc1c[nH]cn1)NC(=O)[C@H](CO)NC(=O)[C@@H](N)Cc1ccc(O)cc1)[C@@H](C)O)[C@@H](C)O)C(=O)N[C@@H](CC(=O)O)C(=O)NC(C)(C)C(=O)N[C@@H](CCCCN)C(=O)N[C@@H](CCCNC(=N)N)C(=O)N[C@@H](C)C(=O)N[C@@H](CCC(N)=O)C(=O)N[C@@H](CCC(=O)O)C(=O)N[C@@H](Cc1ccccc1)C(=O)N[C@H](C(=O)NC(C)(C)C(=O)N[C@@H](Cc1c[nH]c2ccccc12)C(=O)N[C@@H](CC(C)C)C(=O)N[C@@H](CCC(=O)O)C(=O)N[C@@H](CC(=O)O)C(=O)N[C@@H](CCC(=O)O)C(=O)N1CCC[C@H]1C(=O)N[C@@H](CO)C(=O)N[C@@H](CO)C(=O)N[C@@H](CCCCN)C(=O)NCC(=O)N[C@@H](C)C(=O)N1CCC[C@H]1C(=O)N1CCC[C@H]1C(=O)N1CCC[C@H]1C(=O)N[C@@H](CO)C(=O)O)C(C)C) [Compound A24]	12.2	< 9
YSHGTFTSDYSKYLD[Aib]KRAQEFV[Aib]WLEDEPSSGAPPPSS-OH (N-terminus assumed; SMILES CC(C)C[C@H](NC(=O)[C@H](Cc1ccc(O)cc1)NC(=O)[C@H](CCCCN)NC(=O)[C@H](CO)NC(=O)[C@H](Cc1ccc(O)cc1)NC(=O)[C@H](CC(=O)O)NC(=O)[C@H](CO)NC(=O)[C@@H](NC(=O)[C@H](Cc1ccccc1)NC(=O)[C@@H](NC(=O)CNC(=O)[C@H](Cc1c[nH]cn1)NC(=O)[C@H](CO)NC(=O)[C@@H](N)Cc1ccc(O)cc1)[C@@H](C)O)[C@@H](C)O)C(=O)N[C@@H](CC(=O)O)C(=O)NC(C)(C)C(=O)N[C@@H](CCCCN)C(=O)N[C@@H](CCCNC(=N)N)C(=O)N[C@@H](C)C(=O)N[C@@H](CCC(N)=O)C(=O)N[C@@H](CCC(=O)O)C(=O)N[C@@H](Cc1ccccc1)C(=O)N[C@H](C(=O)NC(C)(C)C(=O)N[C@@H](Cc1c[nH]c2ccccc12)C(=O)N[C@@H](CC(C)C)C(=O)N[C@@H](CCC(=O)O)C(=O)N[C@@H](CC(=O)O)C(=O)N[C@@H](CCC(=O)O)C(=O)N1CCC[C@H]1C(=O)N[C@@H](CO)C(=O)N[C@@H](CO)C(=O)NCC(=O)N[C@@H](C)C(=O)N1CCC[C@H]1C(=O)N1CCC[C@H]1C(=O)N1CCC[C@H]1C(=O)N[C@@H](CO)C(=O)N[C@@H](CO)C(=O)O)C(C)C) [Compound A25]	11.3	< 9
YSHGTFTSDYSKYLD[Aib]KRAQEFV[Aib]WLEDEPSSGSPPPS-OH (N-terminus assumed; SMILES CC(C)C[C@H](NC(=O)[C@H](Cc1ccc(O)cc1)NC(=O)[C@H](CCCCN)NC(=O)[C@H](CO)NC(=O)[C@H](Cc1ccc(O)cc1)NC(=O)[C@H](CC(=O)O)NC(=O)[C@H](CO)NC(=O)[C@@H](NC(=O)[C@H](Cc1ccccc1)NC(=O)[C@@H](NC(=O)CNC(=O)[C@H](Cc1c[nH]cn1)NC(=O)[C@H](CO)NC(=O)[C@@H](N)Cc1ccc(O)cc1)[C@@H](C)O)[C@@H](C)O)C(=O)N[C@@H](CC(=O)O)C(=O)NC(C)(C)C(=O)N[C@@H](CCCCN)C(=O)N[C@@H](CCCNC(=N)N)C(=O)N[C@@H](C)C(=O)N[C@@H](CCC(N)=O)C(=O)N[C@@H](CCC(=O)O)C(=O)N[C@@H](Cc1ccccc1)C(=O)N[C@H](C(=O)NC(C)(C)C(=O)N[C@@H](Cc1c[nH]c2ccccc12)C(=O)N[C@@H](CC(C)C)C(=O)N[C@@H](CCC(=O)O)C(=O)N[C@@H](CC(=O)O)C(=O)N[C@@H](CCC(=O)O)C(=O)N1CCC[C@H]1C(=O)N[C@@H](CO)C(=O)N[C@@H](CO)C(=O)NCC(=O)N[C@@H](CO)C(=O)N1CCC[C@H]1C(=O)N1CCC[C@H]1C(=O)N1CCC[C@H]1C(=O)N[C@@H](CO)C(=O)O)C(C)C) [Compound A22]	11	< 9

— patent publication US20180009871A1 (INTARCIA THERAPEUTICS, published 2018)
